Experimental data taken from PMC7617672, “Oryza genera-specific novel Histone H4 variant predisposes H4 Lysine5 Acetylation marks to modulate salt stress responses”.

Experiments:
[1] = molecular target: rice histone H2A;rice histone H2B;rice histone H3;H4.VS (H4.V N-terminal 53 aa fused to H4 C-terminal 50 aa) (Oryza sativa;Oryza sativa;Oryza …, UniProt A2YMC6;A2WKP5;A2Y533;PDB:8Q16_4 ;;;, |||); assay: EMSA (nucleosome reconstitution, native PAGE); mobility shift similar to H4 NCP; NCP gel: native 6% acrylamide, 0.5x TBE; peptide pull-down: 10 mM Tris pH 8.0, 50 mM NaCl, 5 mM MgCl2, 4 C, 6 h; cryo-EM: 10 mM Tris pH 8.0, 50 mM NaCl, 1 mM EDTA; conditions: protein: recombinant;recombinant;recombinant;recombinant; tags: none;none;none;none; chain copies: 2;2;2;2; blunt
[2] = molecular target: rice histone H2A;rice histone H2B;rice histone H3;rice histone H4 (Oryza sativa;Oryza sativa;Oryza …, UniProt A2YMC6;A2WKP5;A2Y533;B7F4Q1 ;;;1-103, |||); assay: EMSA (nucleosome reconstitution, native PAGE); NCP gel: native 6% acrylamide, 0.5x TBE; peptide pull-down: 10 mM Tris pH 8.0, 50 mM NaCl, 5 mM MgCl2, 4 C, 6 h; cryo-EM: 10 mM Tris pH 8.0, 50 mM NaCl, 1 mM EDTA; conditions: protein: recombinant;recombinant;recombinant;recombinant; tags: none;none;none;N-terminal MGS extension from vector; chain copies: 2;2;2;2; blunt

B1: Widom 601 NPS (147 bp as stated; 146 nt printed) (dsDNA)
DNA 1: CTGGAGAATCCCGGTGCCGAGGCCGCTCAATTGGTCGTAGACAGCTCTAGCACCGCTTAAACGCACGTACGCGCTGTCCCCCGCGTTTTAACCGCCAAGGGGATTACTCCCTAGTCTCCAGGCACGTGTCACATATATACATCCTG
DNA 2: CAGGATGTATATATGTGACACGTGCCTGGAGACTAGGGAGTAATCCCCTTGGCGGTTAAAACGCGGGGGACAGCGCGTACGTGCGTTTAAGCGGTGCTAGAGCTGTCTACGACCAATTGAGCGGCCTCGGCACCGGGATTCTCCAG
binding result [1]: binds
binding result [2]: binds
